Results on ten substances are retold here after paper PMC12599920.

The test concerns the target Mushroom body defect coiled-coil domain (Mud^CC). Nature of the test: saturation binding (MBP pull-down, gel quantification). As to conditions: read off a plot.
Where [1] appears, read: right plot, 20 µM MudCC, parent: est. 130.

For “3OCR_ΔCT, P. syringae aldolase enzyme with the CThelix deleted FLEaaa”, the response was found to be 27 AU (10 µM MudCC, parent: est. 110); 46 AU (20 µM MudCC, parent: est. 140); 57 AU (40 µM MudCC, parent: est. 140).
Consider “MBP:Hts (110-310), CThelix truncation of the Hts aldolase domain (from UniProt Q02645) H164A; T167A”, for which the response amounted to 100 AU (left plot, 5 µM MudCC, parent: est. 110) and 120 AU (left plot, 20 µM MudCC, parent: est. 130).
As to “MBP:Hts (110-310), CThelix truncation of the Hts aldolase domain (from UniProt Q02645) L139A”, the response (right plot, 5 µM MudCC, parent: est. 110) worked out at 38 AU; the response (right plot, 10 µM MudCC, parent: est. 120) turned out to be 86 AU; the response under setting [1] worked out at 140 AU.
As for “MBP:Hts (110-310), CThelix truncation of the Hts aldolase domain (from UniProt Q02645) R128A”, the response was 120 AU (right plot, 5 µM MudCC, parent: est. 99) and 140 AU under setting [1].
“MBP:Hts (110-310), CThelix truncation of the Hts aldolase domain (from UniProt Q02645) Y159A; L162A; E165A”: the response is, setting by setting: (left plot, 5 µM MudCC, parent: est. 83) 1 AU; (left plot, 20 µM MudCC, parent: est. 110) 5 AU.
On to “MBP:Hts (110-401), full-length Hts aldolase domain (from UniProt Q02645) D310A”, for which the response was 130 AU (5 µM MudCC, parent: est. 98) and 150 AU (20 µM MudCC, parent: est. 140).
Consider “MBP:Hts (110-401), full-length Hts aldolase domain (from UniProt Q02645) Q151A; E152A”, for which the response by setting is: (5 µM MudCC, parent: est. 98) 93 AU; (20 µM MudCC, parent: est. 140) 150 AU.
The corresponding values for “MBP:Hts (110-401), full-length Hts aldolase domain (from UniProt Q02645) Q177A; V181A” are 110 AU and 150 AU.
Regarding “MBP:Hts (110-401), full-length Hts aldolase domain (from UniProt Q02645) R205A; D207A”, the response is, setting by setting: (5 µM MudCC, parent: est. 98) 120 AU; (20 µM MudCC, parent: est. 140) 140 AU.
For the substance “MBP:Hts (110-401), full-length Hts aldolase domain (from UniProt Q02645) Y159A; L162A; E165A”, the response came out at 7 AU (left plot, 5 µM MudCC, parent: est. 120) and 24 AU (left plot, 20 µM MudCC, parent: est. 140).
